# Source: article PMC5548745, “Agonist-induced dimer dissociation as a macromolecular step in G protein-coupled receptor signaling” (Nature Communications, 2017)
# B1: Frizzled 6 (FZD6), wild type, expressed as V5-FZD6-mCherry and as FZD6-GFP [human] / Frizzled 6 (FZD6), wild type, expressed as V5-FZD6-mCherry and as FZD6-GFP [human] (parent)
# chain 1: HSLFTCEPITVPRCMKMAYNMTFFPNLMGHYDQSIAAVEMEHFLPLANLECSPNIETFLCKAFVPTCIEQIHVVPPCRKLCEKVYSDCKKLIDTFGIRWPEELECDRLQYCDETVPVTFDPHTEFLGPQKKTEQVQRDIGFWCPRHLKTSGGQGYKFLGIDQCAPPCPNMYFKSDELEFAKSFIGTVSIFCLCATLFTFLTFLIDVRRFRYPERPIIYYSVCYSIVSLMYFIGFLLGDSTACNKADEKLELGDTVVLGSQNKACTVLFMLLYFFTMAGTVWWVILTITWFLAAGRKWSCEAIEQKAVWFHAVAWGTPGFLTVMLLAMNKVEGDNISGVCFVGLYDLDASRYFVLLPLCLCVFVGLSLLLAGIISLNHVRQVIQHDGRNQEKLKKFMIRIGVFSGLYLVPLVTLLGCYVYEQVNRITWEITWVSDHCRQYHIPCPYQAKAKARPELALFMIKYLMTLIVGISAVFWVGSKKTCTEWAGFFKRNRKRDPISESRRVLQESCEFFLKHNSKVKHKKKHYKPSSHKLKVISKSMGTSTGATANHGTSAVAITSHDYLGQETLTEIQTSPETSMREVKADGASTPRLREQDCGEPASPAASISRLSGEQVDGKGQAGSVSESARSEGRISPKSDITDTGLAQSNNLQVPSSSEPSSLKGSTSLLVHPVSGVRKEQGGGCHSDT
# chain 2: B1 chain 1
# Variants of: B1
# Experiment: dcFRAP
# Settings: with Frizzled 6 (FZD6), GFP channel (FZD6-GFP dimer control mutant), without CL (before crosslinking of V5-FZD6-mCherry), N = 75 ROIs, read off a plot
row,Variant,response (% of pre-bleach)
1,chain 1 D347E R350K Y351F,85

# Same assay, conditions: with Frizzled 6 (FZD6), GFP channel (FZD6-GFP dimer mutant), without CL (before biotin-anti-V5/avidin surface crosslinking of V5-FZD6-mCherry), N = 23 ROIs, read off a plot
row,Variant,response (% of pre-bleach)
1,chain 1 D347A R350A Y351A,85
